Results taken from patent US20250236673A1 (Ablynx, published 2025).
Substitutions are numbered along the chain they refer to. In names and notes the source's numbering stands. Values belong to the binder of their own block, whether it stands above or below them.

What was measured:
human serum albumin = target: T1, human serum albumin (human, UniProt P02768 25-609); test: SPR Biacore 8K+, HSA amine-coupled on C1 chip, ISVD analyte, 1:1 fit
T1 construct: Immobilised by amine coupling on a C1 chip; also called HSA
T1 sequence (P02768 25-609 limits assumed): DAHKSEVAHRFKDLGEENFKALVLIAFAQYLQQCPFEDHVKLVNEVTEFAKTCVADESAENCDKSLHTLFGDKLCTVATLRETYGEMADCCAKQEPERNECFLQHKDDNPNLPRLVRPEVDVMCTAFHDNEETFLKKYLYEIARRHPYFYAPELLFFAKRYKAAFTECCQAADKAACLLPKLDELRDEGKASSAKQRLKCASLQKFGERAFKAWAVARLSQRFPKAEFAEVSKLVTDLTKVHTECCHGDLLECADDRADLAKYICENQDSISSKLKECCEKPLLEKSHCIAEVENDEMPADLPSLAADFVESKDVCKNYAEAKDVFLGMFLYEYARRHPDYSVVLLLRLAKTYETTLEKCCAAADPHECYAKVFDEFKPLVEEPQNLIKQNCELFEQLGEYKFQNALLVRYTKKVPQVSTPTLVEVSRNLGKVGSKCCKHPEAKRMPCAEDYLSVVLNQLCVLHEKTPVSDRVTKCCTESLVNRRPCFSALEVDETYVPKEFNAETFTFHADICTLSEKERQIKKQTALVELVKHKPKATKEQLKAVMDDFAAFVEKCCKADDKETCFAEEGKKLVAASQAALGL

[1] = target: T2, recombinant human CEACAM5 (human, UniProt P06731 35-685, limits assumed); test: SPR Biacore 8K+, CEACAM5 amine-coupled on CM5, ISVD analyte, 1:1 fit
T2 construct: Immobilised by amine coupling on a CM5 chip
T2 sequence (looked up): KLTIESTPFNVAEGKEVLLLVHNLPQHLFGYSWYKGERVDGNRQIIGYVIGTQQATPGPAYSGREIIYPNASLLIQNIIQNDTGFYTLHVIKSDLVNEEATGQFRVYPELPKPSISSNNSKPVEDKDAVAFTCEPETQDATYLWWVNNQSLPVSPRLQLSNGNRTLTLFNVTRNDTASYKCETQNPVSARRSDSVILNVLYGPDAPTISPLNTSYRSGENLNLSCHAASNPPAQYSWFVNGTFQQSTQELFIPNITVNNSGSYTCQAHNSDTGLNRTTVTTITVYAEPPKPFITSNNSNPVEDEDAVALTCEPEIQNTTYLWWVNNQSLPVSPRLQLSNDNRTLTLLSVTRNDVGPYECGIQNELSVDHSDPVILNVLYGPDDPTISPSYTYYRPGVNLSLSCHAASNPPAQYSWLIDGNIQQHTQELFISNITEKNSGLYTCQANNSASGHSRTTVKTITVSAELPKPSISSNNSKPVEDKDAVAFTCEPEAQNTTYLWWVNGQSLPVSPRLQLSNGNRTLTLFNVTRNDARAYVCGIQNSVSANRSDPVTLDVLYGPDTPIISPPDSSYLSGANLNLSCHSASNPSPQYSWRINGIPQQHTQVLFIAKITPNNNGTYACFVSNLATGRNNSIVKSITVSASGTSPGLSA

B1: T028501806 (VHH)
VHH: EVQLVESGGGVVQPGGSLRLSCAASGFTFRSFGMSWVRQAPGEGPEWVSSISGSGSDTLYADSVKGRFTISRDNSKNTLYLQMNSLRPEDTALYYCTIGGSLSRSSQGTLVTVSS
notes: K43E vs precursor T028501805; also called HSA006A06(K43E, K83R)
- Kd (human serum albumin): 1.26 nM
- koff (human serum albumin): 0.00108 s⁻¹
- kon (human serum albumin): 856000 M⁻¹ s⁻¹

B8: T028501807 (VHH)
VHH: B1 VHH with E43Q
notes: K43Q vs precursor T028501805; also called HSA006A06(K43Q, K83R)
- Kd (human serum albumin): 1.76 nM
- koff (human serum albumin): 0.00119 s⁻¹
- kon (human serum albumin): 677000 M⁻¹ s⁻¹

B9: T028501808 (VHH)
VHH: B1 VHH with E43H
notes: K43H vs precursor T028501805; also called HSA006A06(K43H, K83R)
- Kd (human serum albumin): 1.4 nM
- koff (human serum albumin): 0.00102 s⁻¹
- kon (human serum albumin): 728000 M⁻¹ s⁻¹

B11: T028501790 (VHH)
VHH: EVQLVESGGGVVQPGGSLRLSCAASGLTFSTYTMGWFRQAPGEEREFVAAIIWSGSNTYYADSVKGRFTISRDNAKNTVYLQMNSLRPEDTALYYCAAQHFGPIGLTTRGYHYWGQGTLVTVSS
notes: K43E vs precursor T028501789; also called A0315007E07(K43E)
- Kd [1]: 1.71 nM
- koff [1]: 0.00085 s⁻¹
- kon [1]: 498000 M⁻¹ s⁻¹

B12: T028501794 (VHH)
VHH: B11 VHH with E43A
notes: K43A (Kabat) vs precursor T028501789; also called A0315007E07(K43A)
- Kd [1]: 1.54 nM
- koff [1]: 0.000865 s⁻¹
- kon [1]: 562000 M⁻¹ s⁻¹

B13: T028501798 (VHH)
VHH: B11 VHH with E43K, K65H
notes: K64H vs precursor T028501789; also called A0315007E07(K64H)
- Kd [1]: 2.39 nM
- koff [1]: 0.000962 s⁻¹
- kon [1]: 402000 M⁻¹ s⁻¹

B14: T028501797 (VHH)
VHH: B11 VHH with E43K, K65R
notes: K64R vs precursor T028501789; also called A0315007E07(K64R)
- Kd [1]: 1.59 nM
- koff [1]: 0.00107 s⁻¹
- kon [1]: 675000 M⁻¹ s⁻¹

B15: T028501796 (VHH)
VHH: B11 VHH with E43K, K65Q
notes: K64Q vs precursor T028501789; also called A0315007E07(K64Q)
- Kd [1]: 2.24 nM
- koff [1]: 0.000929 s⁻¹
- kon [1]: 415000 M⁻¹ s⁻¹

B16: T028501801 (VHH)
VHH: B11 VHH with E43K, K76Q
notes: K75Q vs precursor T028501789; also called A0315007E07(K75Q)
- Kd [1]: 1.58 nM
- koff [1]: 0.000913 s⁻¹
- kon [1]: 579000 M⁻¹ s⁻¹

B17: T028501802 (VHH)
VHH: B11 VHH with E43K, K76R
notes: K75R vs precursor T028501789; also called A0315007E07(K75R)
- Kd [1]: 1.39 nM
- koff [1]: 0.000897 s⁻¹
- kon [1]: 643000 M⁻¹ s⁻¹

B18: T028501803 (VHH)
VHH: B11 VHH with E43K, K76H
notes: K75H vs precursor T028501789; also called A0315007E07(K75H)
- Kd [1]: 1.46 nM
- koff [1]: 0.00084 s⁻¹
- kon [1]: 574000 M⁻¹ s⁻¹

B19: T028501793 (VHH)
VHH: B11 VHH with E43H
notes: K43H vs precursor T028501789; also called A0315007E07(K43H)
- Kd [1]: 1.22 nM
- koff [1]: 0.000877 s⁻¹
- kon [1]: 719000 M⁻¹ s⁻¹

B20: T028501792 (VHH)
VHH: B11 VHH with E43R
notes: K43R vs precursor T028501789; also called A0315007E07(K43R)
- Kd [1]: 1.23 nM
- koff [1]: 0.00092 s⁻¹
- kon [1]: 747000 M⁻¹ s⁻¹

The remaining lines, values ahead:

- Kd (human serum albumin): 1.98 nM
- koff (human serum albumin): 0.00102 s⁻¹
- kon (human serum albumin): 514000 M⁻¹ s⁻¹
B2: T028501813 (VHH)
VHH: B1 VHH with E43K, K76E
notes: K75E vs precursor T028501805; also called HSA006A06(K75E, K83R)

- Kd (human serum albumin): 1.48 nM
- koff (human serum albumin): 0.00127 s⁻¹
- kon (human serum albumin): 860000 M⁻¹ s⁻¹
B3: T028501815 (VHH)
VHH: B1 VHH with E43K, K76R
notes: K75R vs precursor T028501805; also called HSA006A06(K75R, K83R)

- Kd (human serum albumin): 1.76 nM
- koff (human serum albumin): 0.00103 s⁻¹
- kon (human serum albumin): 587000 M⁻¹ s⁻¹
B4: T028501811 (VHH)
VHH: B1 VHH with E43K, K65Q
notes: K64Q vs precursor T028501805; also called HSA006A06(K64Q, K83R)

- Kd (human serum albumin): 1.4 nM
- koff (human serum albumin): 0.00114 s⁻¹
- kon (human serum albumin): 814000 M⁻¹ s⁻¹
B5: T028501814 (VHH)
VHH: B1 VHH with E43K, K76Q
notes: K75Q vs precursor T028501805; also called HSA006A06(K75Q, K83R)

- Kd (human serum albumin): 1.13 nM
- koff (human serum albumin): 0.000872 s⁻¹
- kon (human serum albumin): 769000 M⁻¹ s⁻¹
B6: T028501809 (VHH)
VHH: B1 VHH with E43A
notes: K43A vs precursor T028501805; also called HSA006A06(K43A, K83R)

- Kd (human serum albumin): 1.93 nM
- koff (human serum albumin): 0.00124 s⁻¹
- kon (human serum albumin): 644000 M⁻¹ s⁻¹
B7: T028501810 (VHH)
VHH: B1 VHH with E43K, K65E
notes: K64E vs precursor T028501805; also called HSA006A06(K64E,K83R)

- Kd (human serum albumin): 1.74 nM
- koff (human serum albumin): 0.00102 s⁻¹
- kon (human serum albumin): 590000 M⁻¹ s⁻¹
B10: T028501812 (VHH)
VHH: B1 VHH with E43K, K65H
notes: K64H vs precursor T028501805; also called HSA006A06(K64H, K83R)
